Tested on: T1, fluorescence labeled peptide of the protease-sensitive hinge region of LTBP1, REHGARS
T1 sequence: REHGARS

Substance: MMP13 catalytic domain (Enzo, Inc)
- Km (Michaelis-Menten non-linear fit, digest of fluorescence labeled hinge substrate): Km=1.628e-016
